Test results as given in patent publication US20230393125A1 (Hoffmann-La Roche, published 2023).

Biological target: T1, recombinant cynomolgus CCL2 (cynomolgus monkey, UniProt P61274 24-99)
T1 construct: also called cyCCL2; cynomolgus monkey CCL2
Assay: Gyrolab sandwich assay; detection reagent
Procedure: A Gyrolab™ based method was used in this example. Recombinant cynomolgus CCL2 samples were prepared in assay buffer (PBS, 0.1% (v/v) Tween-20, 1% BSA) and analyzed on a Gyrolab Xplore. […] All reagents and samples were transferred to a 96-well PCR plate and loaded into the instrument together with a Gyrolab BioAffy 200 nL disc (Gyros Protein Technologies AB). A three-step assay protocol (200-3W-001) was selected. […] Each reagent reaches the column at the same time after a short spinning step is applied to the disc. The columns were washed with PBS with 0.05 Tween after each step and finally laser induced fluorescence values were recorded within the instrument. A non-linear 4-parameter curve-fitting function (Wiemer-Rodbard) was applied to the averaged raw data to obtain a calibration curve.

binding result: binds
B1: humanized anti-CCL2 antibody 11K2 (CCL2-0002) (antibody, V domains shown)
VH: QVQLVQSGAEVKKPGSSVKVSCKASGLTISDTYMHWVRQAPGQGLEWMGRIDPANGNTKFDPKFQGRVTITADTSTSTAYMELSSLRSEDTAVYYCARGVFGFFDYWGQGTTVTVSS
VL: DIQMTQSPSSLSASVGDRVTITCKATEDIYNRLAWYQQKPGKAPKLLISGATSLETGVPSRFSGSGSGTDYTLTISSLQPEDFATYYCQQFWSAPYTFGGGTKVEIK
modifications: Used as a digoxigenin or Alexa 647 conjugate; conjugation sites not stated.
notes: Detection reagent; also called Humanized 11K2; 11K2-Dig
